Measurements from patent US7067474B1, “Agents for treating human illnesses based on β-catenin, and the production and use thereof” (Max-Delbruck-Centrum fur Molekulare Medizin, priority 1998, dated 2006).

T1: APC (15 amino acid repeats) (Homo sapiens, UniProt P25054)
T1 construct: of human APC for the amino acids His1012–Glu1215 (APC 15 amino acid repeats); expressed in transfected cells; host or cells: yeast (two-hybrid, Matchmaker, Clontech)
T1 sequence (P25054 1006-1209 limits assumed): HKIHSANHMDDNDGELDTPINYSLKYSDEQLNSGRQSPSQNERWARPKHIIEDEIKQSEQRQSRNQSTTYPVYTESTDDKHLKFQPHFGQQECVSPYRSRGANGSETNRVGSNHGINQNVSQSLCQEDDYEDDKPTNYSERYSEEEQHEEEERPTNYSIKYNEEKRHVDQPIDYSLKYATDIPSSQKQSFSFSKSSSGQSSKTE

T2: APC (20 amino acid repeats) (Homo sapiens, UniProt P25054)
T2 construct: for the amino acids Ser1259Asp 1400 (APC 20 amino acid repeats); expressed in transfected cells; host or cells: yeast (two-hybrid, Matchmaker, Clontech)
T2 sequence (P25054 1253-1394 limits assumed): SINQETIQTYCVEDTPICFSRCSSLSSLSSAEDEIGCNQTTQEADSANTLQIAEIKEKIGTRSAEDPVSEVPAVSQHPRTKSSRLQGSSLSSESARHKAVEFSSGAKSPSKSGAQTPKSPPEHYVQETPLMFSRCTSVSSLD


How the values were obtained:
[1] = biological target: human APC amino acids His1012-Glu1215 (APC 15 amino acid repeats) fused to Lex-A (vector BTM 116) (human); assay: yeast 2-hybrid, β-galactosidase reporter; percent of wild type β-catenin
[2] = biological target: human APC amino acids Ser1259-Asp1400 (APC 20 amino acid repeats) fused to Lex-A (vector BTM 116) (human); assay: as above
[3] = biological target: conductin amino acids Ala342-Arg465 fused to Lex-A (vector BTM 116) (UniProt P0A7C2); assay: as above
[4] = biological target: T1, APC (15 amino acid repeats); assay: yeast 2-hybrid: interaction of β-catenin mutants with APC 15 amino acid repeats; type: binding; details: yeast 2-hybrid, alanine mutants
How it was run: (§1)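 Alanine-substituted human β-catenin mutants (armadillo repeat 3 to C-terminus, from Leu218) fused to Gal4 activation domain; partner fragments fused to LexA: E-cadherin Gln773–Asp884, APC His1012–Glu1215 or Ser1259–Asp1400, conductin Ala342–Arg465. Interaction quantified by β-galactosidase reporter activity in yeast.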

E-cadherin = biological target: T3, E-cadherin (Mus musculus, UniProt P09803); assay: yeast 2-hybrid: interaction of β-catenin mutants with E-cadherin; type: binding; details: alanine mutants
T3 construct: E-cadherin for the amino acids Gin773–Asp884 (cytoplasmatic domain); expressed in transfected cells; host or cells: yeast (two-hybrid, Matchmaker, Clontech)
Description: The mutagenesis of β-catenin in the armadillo repeats 3–8 was carried out by means of the “mutagenesis kit” of the company Clontech according to the producer's record and the mutants were checked by sequencing (FIG. 5). In all mutants the original amino acid was substituted by alanine. For analyzing the interactions the cDNA of human β-catenin (armadillo repeat 3 up to the C-terminal end of the protein) coding for the amino acids Leu218–Leu7 μl or its mutants was cloned into the fusion vector for the activation domain of Gal-4 (pGAD424, Clontech). The cDNA for the binding domains of the interaction partners was cloned into the Lex-A fusion vector BTM 116. To this end, the cDNA of LEF-1 for the amino acids 1–99, conductin for the amino acids Ala342–ARG465; of human APC for the amino acids His1012–Glu1215 (APC 15 amino acid repeats) and for the amino acids Ser1259Asp 1400 (APC 20 amino acid repeats) and E-cadherin for the amino acids Gin773–Asp884 (cytoplasmatic domain) were amplified with the respective primers PCR. The interaction of the Lex-A hybrids with β-catenin and its mutants was quantified by means of the β-galactosidase reporter activity in the yeast 2-hybrid system (report: “Matchmaker”. Clontech) (Tab. 2 and FIG. 6).

conductin = biological target: T4, conductin (Mus musculus, UniProt O88566); assay: yeast 2-hybrid: interaction of β-catenin mutants with conductin; type: binding; details: yeast 2-hybrid, alanine mutants
T4 construct: conductin for the amino acids Ala342–ARG465; expressed in transfected cells; host or cells: yeast (two-hybrid, Matchmaker, Clontech)
How it was run: as §1

[5] = biological target: T2, APC (20 amino acid repeats); assay: yeast 2-hybrid: interaction of β-catenin mutants with APC 20 amino acid repeats; type: binding; details: yeast 2-hybrid, alanine mutants
How it was run: as §1

LEF-1 = biological target: T5, LEF-1 (Mus musculus, UniProt P27782); assay: yeast 2-hybrid: interaction of β-catenin mutants with LEF-1; type: binding; details: yeast 2-hybrid, alanine mutants
T5 construct: the cDNA of LEF-1 for the amino acids 1–99; expressed in transfected cells; host or cells: yeast (two-hybrid, Matchmaker, Clontech)
T5 sequence (P27782 1-99): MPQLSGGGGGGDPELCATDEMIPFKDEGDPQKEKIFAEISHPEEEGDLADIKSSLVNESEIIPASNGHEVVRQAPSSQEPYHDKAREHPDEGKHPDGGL

T4 sequence (O88566 343-465 limits assumed): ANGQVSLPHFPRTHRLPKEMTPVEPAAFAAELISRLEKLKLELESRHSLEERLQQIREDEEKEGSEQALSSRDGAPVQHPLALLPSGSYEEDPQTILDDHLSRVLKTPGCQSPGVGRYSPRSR
Chain of conductin amino acids Ala342-Arg465 fused to Lex-A (vector BTM 116) (P0A7C2 other isoform, or with tags, fused parts or gaps limits assumed, form in doubt): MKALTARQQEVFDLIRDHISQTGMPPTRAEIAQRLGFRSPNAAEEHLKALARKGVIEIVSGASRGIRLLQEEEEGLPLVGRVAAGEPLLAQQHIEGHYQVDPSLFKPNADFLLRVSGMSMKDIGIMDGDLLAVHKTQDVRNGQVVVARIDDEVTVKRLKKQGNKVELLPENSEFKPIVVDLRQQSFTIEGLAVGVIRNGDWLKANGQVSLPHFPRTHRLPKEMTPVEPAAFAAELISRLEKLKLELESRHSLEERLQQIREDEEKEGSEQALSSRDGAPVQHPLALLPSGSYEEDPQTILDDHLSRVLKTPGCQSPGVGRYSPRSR
T3 sequence (P09803 773-884): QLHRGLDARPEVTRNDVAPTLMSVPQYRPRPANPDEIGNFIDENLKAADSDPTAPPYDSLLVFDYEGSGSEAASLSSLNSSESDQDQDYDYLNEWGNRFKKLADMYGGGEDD
Chain of human APC amino acids Ser1259-Asp1400 (APC 20 amino acid repeats) fused to Lex-A (vector BTM 116) (human) (P0A7C2 other isoform, or with tags, fused parts or gaps limits assumed, form in doubt): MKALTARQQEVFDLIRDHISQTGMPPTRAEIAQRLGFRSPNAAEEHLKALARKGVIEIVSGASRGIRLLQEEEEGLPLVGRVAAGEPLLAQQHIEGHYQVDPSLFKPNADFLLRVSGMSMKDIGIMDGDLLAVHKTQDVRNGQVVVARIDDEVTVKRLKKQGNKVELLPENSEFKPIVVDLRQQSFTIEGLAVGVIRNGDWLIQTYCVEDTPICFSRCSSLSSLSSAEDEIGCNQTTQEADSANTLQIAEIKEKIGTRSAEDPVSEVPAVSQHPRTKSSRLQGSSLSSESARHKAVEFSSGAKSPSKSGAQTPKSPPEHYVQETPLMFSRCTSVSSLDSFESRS
Chain of human APC amino acids His1012-Glu1215 (APC 15 amino acid repeats) fused to Lex-A (vector BTM 116) (human) (P0A7C2 other isoform, or with tags, fused parts or gaps limits assumed, form in doubt): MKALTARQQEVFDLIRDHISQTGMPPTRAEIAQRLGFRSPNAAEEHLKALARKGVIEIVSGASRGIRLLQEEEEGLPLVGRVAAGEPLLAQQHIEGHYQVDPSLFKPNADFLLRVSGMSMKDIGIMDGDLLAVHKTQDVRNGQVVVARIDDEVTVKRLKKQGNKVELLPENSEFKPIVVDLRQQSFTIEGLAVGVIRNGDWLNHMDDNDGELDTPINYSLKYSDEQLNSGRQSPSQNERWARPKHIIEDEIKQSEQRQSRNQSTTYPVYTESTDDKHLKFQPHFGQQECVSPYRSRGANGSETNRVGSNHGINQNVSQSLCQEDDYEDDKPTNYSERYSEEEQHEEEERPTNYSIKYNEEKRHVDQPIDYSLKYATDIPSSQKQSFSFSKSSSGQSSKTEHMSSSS

Molecule	share of the interaction with wild type β-catenin in percent [1] [%]	share of the interaction with wild type β-catenin in percent [2] [%]	share of the interaction with wild type β-catenin in percent [3] [%]	Interaction With Conductin, share of wild type β-catenin interaction (conductin) [%]	Interaction With APC-15, share of wild type β-catenin interaction [4]	Interaction With E-Cadherin, share of wild type β-catenin interaction (E-cadherin)	Interaction With APC-20, share of wild type β-catenin interaction [5]	Interaction With LEF-1, share of wild type β-catenin interaction (LEF-1)
human β-catenin (Leu218-Leu781) mutant Trp 383 to alanine, Gal-4 activation domain fusion (from UniProt P35222 218-781)	59	0						
human β-catenin (Leu218-Leu781) mutant Lys 292 to alanine, Gal-4 activation domain fusion (from UniProt P35222 218-781)		28	5					
human β-catenin (Leu218-Leu781) mutant Phe 253 to alanine, Gal-4 activation domain fusion (from UniProt P35222 218-781)		40	17					
human β-catenin (Leu218-Leu781) mutant Trp 338 to alanine, Gal-4 activation domain fusion (from UniProt P35222 218-781)		55	20					
Lys 394: human β-catenin mutant, Lys 394 substituted by alanine (arm 7) (protein, left off: large carriers; small tags and cut ends) LHNLSHHREGLLAIFKSGGIPALVKMLGSPVDSVLFYAITTLHNLLLHQEGAKMAVRLAGGLQKMVALLNKTNVKFLAITTDCLQILAYGNQESKLIILASGGPQALVNIMRTYTYEKLLWTTSRVLKVLSVCSSNKPAIVEAGGMQALGLHLTDPSQRLVQNCLWTLRNLSDAATAQEGMEGLLGTLVQLLGSDDINVVTCAAGILSNLTCNNYKNKMMVCQVGGIEALVRTVLRAGDREDITEPAICALRHLTSRHQEAEMAQNAVRLHYGLPVVVKLLHPPSHWPLIKATVGLIRNLALCPANHAPLREQGAIPRLVQLLVRAHQDTQRRTSMGGTQQQFVEGVRMEEIVEGCTGALHILARDVHNRIVIRGLNTIPLFVQLLYSPIENIQRVAAGVLCELAQDKEAAEAIEAEGATAPLTELLHSRNEGVATYAAAVLFRMSEDKPQDYKKRLSVELTSSLFRTEPMAWNETADLGLDIGAQGEPLGYRQDDPSYRSFHSGGYGQDALGMDPMMEHEMGGHHPGADYPVDGLPDLGHAQDLMDGLPPGDSNQLAWFDTDL				42	— (Interactions marked by — correspond to 60–100% of the wild type interaction)	— (Interactions marked by — correspond to 60–100% of the wild type interaction)	— (Interactions marked by — correspond to 60–100% of the wild type interaction)	— (Interactions marked by — correspond to 60–100% of the wild type interaction)

The next lines start with results.

share of the interaction with wild type β-catenin in percent [1] [%]	share of the interaction with wild type β-catenin in percent [2] [%]	share of the interaction with wild type β-catenin in percent [3] [%]	Interaction With Conductin, share of wild type β-catenin interaction (conductin) [%]	Molecule	Interaction With APC-15, share of wild type β-catenin interaction [4]	Interaction With E-Cadherin, share of wild type β-catenin interaction (E-cadherin)	Interaction With APC-20, share of wild type β-catenin interaction [5]	Interaction With LEF-1, share of wild type β-catenin interaction (LEF-1)
30		42		human β-catenin (Leu218-Leu781) mutant Lys 435 to alanine, Gal-4 activation domain fusion (from UniProt P35222 218-781)				
			5	Lys 292: human β-catenin mutant, Lys 292 substituted by alanine (arm 4) (protein, left off: large carriers; small tags and cut ends) LHNLSHHREGLLAIFKSGGIPALVKMLGSPVDSVLFYAITTLHNLLLHQEGAKMAVRLAGGLQKMVALLNKTNVAFLAITTDCLQILAYGNQESKLIILASGGPQALVNIMRTYTYEKLLWTTSRVLKVLSVCSSNKPAIVEAGGMQALGLHLTDPSQRLVQNCLWTLRNLSDAATKQEGMEGLLGTLVQLLGSDDINVVTCAAGILSNLTCNNYKNKMMVCQVGGIEALVRTVLRAGDREDITEPAICALRHLTSRHQEAEMAQNAVRLHYGLPVVVKLLHPPSHWPLIKATVGLIRNLALCPANHAPLREQGAIPRLVQLLVRAHQDTQRRTSMGGTQQQFVEGVRMEEIVEGCTGALHILARDVHNRIVIRGLNTIPLFVQLLYSPIENIQRVAAGVLCELAQDKEAAEAIEAEGATAPLTELLHSRNEGVATYAAAVLFRMSEDKPQDYKKRLSVELTSSLFRTEPMAWNETADLGLDIGAQGEPLGYRQDDPSYRSFHSGGYGQDALGMDPMMEHEMGGHHPGADYPVDGLPDLGHAQDLMDGLPPGDSNQLAWFDTDL	— (Interactions marked by — correspond to 60–100% of the wild type interaction)	— (Interactions marked by — correspond to 60–100% of the wild type interaction)	28%	— (Interactions marked by — correspond to 60–100% of the wild type interaction)
			36	Arg 457: human β-catenin mutant, Arg 457 substituted by alanine (arm 8) (protein, left off: large carriers; small tags and cut ends) LHNLSHHREGLLAIFKSGGIPALVKMLGSPVDSVLFYAITTLHNLLLHQEGAKMAVRLAGGLQKMVALLNKTNVKFLAITTDCLQILAYGNQESKLIILASGGPQALVNIMRTYTYEKLLWTTSRVLKVLSVCSSNKPAIVEAGGMQALGLHLTDPSQRLVQNCLWTLRNLSDAATKQEGMEGLLGTLVQLLGSDDINVVTCAAGILSNLTCNNYKNKMMVCQVGGIEALVRTVLRAGDAEDITEPAICALRHLTSRHQEAEMAQNAVRLHYGLPVVVKLLHPPSHWPLIKATVGLIRNLALCPANHAPLREQGAIPRLVQLLVRAHQDTQRRTSMGGTQQQFVEGVRMEEIVEGCTGALHILARDVHNRIVIRGLNTIPLFVQLLYSPIENIQRVAAGVLCELAQDKEAAEAIEAEGATAPLTELLHSRNEGVATYAAAVLFRMSEDKPQDYKKRLSVELTSSLFRTEPMAWNETADLGLDIGAQGEPLGYRQDDPSYRSFHSGGYGQDALGMDPMMEHEMGGHHPGADYPVDGLPDLGHAQDLMDGLPPGDSNQLAWFDTDL	— (Interactions marked by — correspond to 60–100% of the wild type interaction)	— (Interactions marked by — correspond to 60–100% of the wild type interaction)	— (Interactions marked by — correspond to 60–100% of the wild type interaction)	— (Interactions marked by — correspond to 60–100% of the wild type interaction)
